Key:
[1] = Thioflavin T fluorometric assay of amyloid fibril formation in vitro; type: physicochemical; settings: incubation at 37° C., up to at least 15 days
Method: Studies of amyloid fibril formation in vitro can be performed using published protocols from the laboratory of the present inventors (Castaño et al., 1995; Wisniewski et al., 1991; Wisniewski et al., 1993 and Wisniewski et al., 1994). […] In vitro fibrillogenesis was evaluated by a fluorometric assay based on the fluorescence emission by thioflavine T, as previously described by the laboratory of the present inventors (Soto et al., 1998 and Jameson et al., 1998). Thioflavine T binds specifically to amyloid and this binding procedures a shift in its emission spectrum and a fluorescent enhancement proportional to the amount of amyloid formed (LeVine et al. 1993).
(§1) The experiments were performed as described in Example 1.

[2] = Secondary structure by circular dichroism (CD); type: physicochemical
Method: Secondary structure (α-helix, β-sheet, and random coil) of the peptides was evaluated by circular dichroism (CD) as described previously (Soto et al., 1998 and Soto et al., 1996). Results are expressed as molar ellipticity in units of deg cm^2 dmol^−1, and the data was analyzed by the Lincomb and CCA algorithms (Perczel et al., 1992) to obtain the percentages of different types of secondary structure.
The experimental procedure for circular dichroism is performed according to Golabek et al., (1996) and Soto et al. (1996 and 1998) as follows: CD spectra of solutions containing synthetic peptides (1-5 μM in 300 μl of 10 mM sodium phosphate, pH 7.2) is recorded in a Jasco J-720 spectropolarimeter at 25° C. using a 0.1 cm path-length cell with double distilled, deionized water and TFE (spectroscopy grade) being used as solvents. Calibration of the instrument is performed with an aqueous solution of d-(+)-10-camphorsulfonic acid. Spectra is recorded at 1 nm intervals over the wavelength range 180 to 260 nm and buffer spectra obtained under identical conditions is subtracted.

[3] = tested on: human neuroblastoma cell line (SK—N—SH); experiment: Neurotoxicity, MTT assay; type: cell-based; settings: for Toxicity to SK—N—SH cells (MTT): 2 and 6 days, vs vehicle; for Aggregates visible under the microscope in culture wells: during the incubation period, 10-100 μM
Method: Briefly, cells were plated at 10,000 cells/100 μl culture medium per well in flat bottom, 96 well microtiter plates. The cells were allowed to attach to the plate overnight in an incubator (37° C., 5.0% CO2), and then 10 μl of freshly prepared peptide solution (in nanopure H2O) was added. […] Subsequent steps were as described in the assay protocol.
Data Analysis: The cell culture data was analyzed by one-way ANOVA, followed by a Dunnett's test for post hoc analysis (GraphPad Prism 3.0). An unbiased stereological image analysis system (Bioquant, R&M Biometrics Inc., Nashville, Tenn.) was used to determine the amyloid burden in 6E10 stained brain sections. The data for the amyloid burden and the levels of soluble Aβ within the brain were analyzed by a Student's t-test, two-tailed.
as §1
Data Analysis: The cell culture data was analyzed by one-way ANOVA, followed by a Newman Keuls' test for post hoc analysis (GraphPad Prism 3.0).

[4] = Solubility of freshly prepared peptide solution (in nanopure H2O); type: physicochemical; settings: at 100 μM

Row | Substance | Fibril formation (thioflavin T) ([1]; Example 2, FIG. 5) | alpha (secondary structure by CD) ([2]; Time 0 hr) [%] | beta-sheet (secondary structure by CD) ([2]; Time 0 hr) [%] | random (secondary structure by CD) ([2]; Time 0 hr) [%] | alpha (secondary structure by CD) ([2]; Time 24 hr) [%] | beta-sheet (secondary structure by CD) ([2]; Time 24 hr) [%] | random (secondary structure by CD) ([2]; Time 24 hr) [%] | alpha (secondary structure by CD) ([2]; Time 96 hr) [%] | beta-sheet (secondary structure by CD) ([2]; Time 96 hr) [%] | random (secondary structure by CD) ([2]; Time 96 hr) [%] | Fibril formation (thioflavin T) ([1]; Example 1, FIG. 1) | Toxicity to SK—N—SH cells (MTT) ([3]; Example 1, FIGS. 2A and 2B) | Toxicity to SK—N—SH cells (MTT) ([3]; Example 2, FIGS. 6A and 6B) | Solubility [4] | Aggregates visible under the microscope in culture wells ([3]; Example 1) | Aggregates visible under the microscope in culture wells ([3]; Example 2)
1 | Aβ1-30-NH2(DD18,19): modified Aβ1-30, amidated, Asp at positions 18 and 19 (SEQ ID NO:13) | did not form fibrils |  |  |  |  |  |  |  |  |  |  |  |  |  |  | 
2 | Aβ1-30-NH2: first thirty residues of Aβ1-42 (SEQ ID NO:1), amidated at the C-terminus; control peptide | gradually formed fibrils over time | 5 | 37 | 58 | 8 | 36 | 56 | 7 | 49 | 44 | gradually formed fibrils over time |  |  |  |  | 
3 | Aβ1-40: amyloid β peptide, sequence 1-40; control peptide | gradually formed fibrils over time |  |  |  |  |  |  |  |  |  |  | toxic | toxic |  |  | 
4 | Aβ1-30-NH2(EE18,19): modified Aβ1-30, amidated, Glu at positions 18 and 19 (SEQ ID NO:12) | did not form fibrils |  |  |  |  |  |  |  |  |  |  |  |  |  |  | 
5 | Aβ1-42: amyloid β peptide, sequence 1-42; control peptide |  | 9 | 36 | 55 | 9 | 40 | 51 | 5 | 55 | 40 |  | toxic | toxic | only partially soluble | aggregates were visible | aggregates were visible
